This test concerns the target RIFIN PF3D7_1373400 V2 domain, soluble recombinant (P. falciparum 3D7, UniProt C0H5N9). The experiment in a line: cryo-EM structure.

B1: MDB1 Fab (LILRB1 D3D4-containing antibody Fab) (Fab, V domains shown)
VH: QITLKESGPTLVERTQTLTLTCTFSGFSLTTDGLGVGWIRQPPGKALEWLALIYYDDVRRYRPSLKSRLTITKDTSKNRVVLTVTDMDPVDAGTYFCVHASLFNLGSRNVYFRYWGQGTLVSVSS
VL: SYDLTQPPSVSVSPGQTARITCSGDSLARQFASWYQQKPGQSPVLLIYKNIERLSAIPERFSGSTSGTSVTLTISGVQAEDEADYFCQSADDSGSYSLFGTGTRVSVL
Take B1: the binding result is recorded as “binds”.

Values taken from publication PMC8068667 (Nature, 2021).
